From the Human Domainome abundance scans (Beltran et al. 2025)
± gives the uncertainty stated by the source.

B1: POU domain, class 3, transcription factor 3, residues 320 to 388; numbered along this chain, P20264 (parent)
chain: DDLEQFAKQFKQRRIKLGFTQADVGLALGTLYGNVFSQTTICRFEALQLSFKNMCKLKPLLNKWLEEAD
B2: Histone-lysine N-methyltransferase 2A, residues 1148 to 1194; numbered along this chain, Q03164 (parent)
chain: KGRRSRRCGQCPGCQVPEDCGVCTNCLDKPKFGGRNIKKQCCKMRKC

Variants of: B1
Test: abundance fitness (aPCA) (normalised: wild type 0, dead -1); higher = more abundant; growth selection in yeast, the domain comes from the species named
Details: Homo sapiens

Variant | abundance fitness
A68Y | -0.176 ± 0.17
A68R | -0.248 ± 0.15
A68Q | -0.587 ± 0.32
A68S | -0.082 ± 0.14
D69E | -0.183 ± 0.25
D69P | -0.128 ± 0.047
D69S | -0.573 ± 0.32
D69L | -0.436 ± 0.16
D69T | -0.314 ± 0.25

Variants of: B2
Test: as above
Details: Homo sapiens

Variant | abundance fitness
R7T | -0.153 ± 0.13
R7F | -0.192 ± 0.15
R7W | -0.204 ± 0.11
R7A | -0.09 ± 0.12
R7Y | -0.214 ± 0.17
R7Q | -0.188 ± 0.14
R7I | -0.17 ± 0.16
R7H | -0.435 ± 0.36
R7C | -0.493 ± 0.14
R7S | 0.019 ± 0.091
R7K | -0.103 ± 0.12
R7N | -0.041 ± 0.16
R7D | 0.159 ± 0.16
R7V | 0.075 ± 0.1
R7G | -0.036 ± 0.093
R7L | -0.092 ± 0.094
R7P | 0.294 ± 0.12
Q15M | 0.058 ± 0.11
Q15S | -0.313 ± 0.085
Q15T | -0.244 ± 0.1
Q15C | -0.37 ± 0.11
Q15V | -0.25 ± 0.089
Q15N | -0.392 ± 0.15

Variant | abundance fitness
Q15P | -0.838 ± 0.14
Q15G | -0.384 ± 0.088
Q15I | -0.185 ± 0.16
Q15R | -0.19 ± 0.093
Q15D | -0.463 ± 0.16
Q15F | -0.54 ± 0.13
Q15Y | -0.727 ± 0.15
Q15L | -0.049 ± 0.081
Q15W | -0.468 ± 0.11
Q15H | -0.355 ± 0.18
Q15A | -0.112 ± 0.089
Q15E | -0.103 ± 0.12
C8G | -0.457 ± 0.084
C8E | -0.506 ± 0.11
C8R | -0.809 ± 0.1
C8T | -0.7 ± 0.13
C8K | -0.583 ± 0.13
C8I | -0.585 ± 0.14
C8A | -0.786 ± 0.11
C8D | -0.442 ± 0.12
C8V | -0.691 ± 0.095
C8Q | -0.568 ± 0.12
C8P | -0.613 ± 0.15

Variant | abundance fitness
C8L | -0.648 ± 0.087
C8W | -0.863 ± 0.12
C8S | -0.626 ± 0.095
C8Y | -0.944 ± 0.11
C8M | -0.496 ± 0.12
C8F | -0.704 ± 0.15
P12L | -0.106 ± 0.088
P12Q | 0.016 ± 0.12
P12N | -0.465 ± 0.19
P12E | -0.439 ± 0.12
P12Y | -0.063 ± 0.2
P12T | -0.5 ± 0.14
P12M | -0.081 ± 0.14
P12C | -0.758 ± 0.14
P12R | -0.398 ± 0.082
P12S | -0.676 ± 0.12
P12I | -0.31 ± 0.14
P12H | -0.579 ± 0.17
P12F | -0.63 ± 0.16
P12W | -0.723 ± 0.13
P12V | -0.712 ± 0.11
P12K | -0.75 ± 0.16
P12G | -0.872 ± 0.096

Variant | abundance fitness
C11H | -0.495 ± 0.15
C11V | -0.371 ± 0.1
C11I | -0.913 ± 0.18
C11E | -0.799 ± 0.16
C11Q | -0.915 ± 0.17
C11A | -0.696 ± 0.11
C11M | -0.784 ± 0.13
C11T | -0.519 ± 0.16
C11P | -0.693 ± 0.17
C11K | -0.964 ± 0.22
C11S | -0.55 ± 0.09
C11L | -0.967 ± 0.11
C11Y | -0.827 ± 0.11
C11F | -0.719 ± 0.18
C11W | -0.674 ± 0.12
C11R | -0.81 ± 0.096
C11G | -0.643 ± 0.099
G9Q | -0.299 ± 0.13
G9H | -0.39 ± 0.17
G9W | -0.553 ± 0.13
G9Y | -0.42 ± 0.15
G9R | -0.55 ± 0.097
G9E | -0.866 ± 0.14

Variant | abundance fitness
G9P | -0.738 ± 0.15
G9A | -0.519 ± 0.1
G9M | -0.256 ± 0.12
G9T | -0.653 ± 0.13
G9D | -0.773 ± 0.093
G9C | -0.145 ± 0.18
G9V | -0.726 ± 0.099
G9L | -0.562 ± 0.086
G9I | -0.452 ± 0.13
G9F | -0.469 ± 0.1
C20E | -0.736 ± 0.16
C20Q | -0.866 ± 0.17
C20A | -0.961 ± 0.13
C20N | -0.898 ± 0.23
C20T | -0.753 ± 0.13
C20I | -0.895 ± 0.23
C20F | -1.03 ± 0.2
C20H | -0.97 ± 0.28
C20R | -0.654 ± 0.11
C20M | -0.925 ± 0.17
C20P | -0.947 ± 0.21
C20K | -0.594 ± 0.15
C20S | -0.832 ± 0.12

Variant | abundance fitness
C20D | -0.782 ± 0.21
G13W | -0.708 ± 0.12
G13E | -0.353 ± 0.12
G13F | -0.522 ± 0.11
G13I | -0.606 ± 0.13
G13K | -0.678 ± 0.16
G13M | -0.381 ± 0.11
G13T | -0.455 ± 0.099
G13P | 0.152 ± 0.11
G13C | -0.315 ± 0.086
G13N | -0.266 ± 0.11
G13D | -0.313 ± 0.093
G13Q | -0.068 ± 0.15
G13R | -0.719 ± 0.1
G13Y | -0.393 ± 0.11
G13A | -0.219 ± 0.096
G13L | -0.445 ± 0.09
G13H | -0.884 ± 0.2
P17G | -0.082 ± 0.084
P17S | 0.026 ± 0.091
P17T | 0.161 ± 0.12
P17W | -0.215 ± 0.094
P17A | -0.058 ± 0.096

Variant | abundance fitness
P17F | -0.123 ± 0.11
P17E | 0.074 ± 0.11
P17L | -0.06 ± 0.091
P17Y | -0.485 ± 0.16
P17K | 0.095 ± 0.12
P17V | -0.057 ± 0.087
P17Q | -0.159 ± 0.11
P17N | -0.313 ± 0.23
P17M | -0.241 ± 0.13
P17D | -0.615 ± 0.2
P17C | -0.367 ± 0.12
P17I | -0.358 ± 0.2
D19W | -0.861 ± 0.2
D19C | -0.977 ± 0.2
D19T | -0.865 ± 0.16
D19V | -0.901 ± 0.11
D19G | -0.96 ± 0.13
D19L | -0.878 ± 0.11
D19E | -0.962 ± 0.15
D19Q | -1.05 ± 0.19
